Data set [1] concerns the target T1, Zn(II)Har150 (Porphyromonas gingivalis ATCC 33277) (UniProt B2RKX7).
T1 sequence: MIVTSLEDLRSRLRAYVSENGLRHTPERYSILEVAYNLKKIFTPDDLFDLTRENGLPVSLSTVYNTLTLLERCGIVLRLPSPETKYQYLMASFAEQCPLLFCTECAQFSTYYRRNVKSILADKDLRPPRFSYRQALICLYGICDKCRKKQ
Briefly: EMSA.

Data set [2] deals with T1, Zn(II)Har150 (Porphyromonas gingivalis ATCC 33277). Briefly: competition.
Data set [3] deals with the molecule itself. Briefly: SEC.

Consider 5 molecules from paper PMC4222909, “The Porphyromonas gingivalis Ferric Uptake Regulator Orthologue Binds Hemin and Regulates Hemin-Responsive Biofilm Development” (PLoS ONE, 2014).

Regarding “GGTGTTGATAACTCGGTCGCGCCTTGGTCGGCTTTCGTATAAGTGTCTGGAATGCAGTGGAATAGCGTTGTTTCCTTCGCTGTTTATATCTCAAGGTTATAACCATCTGAAAACAATATAGATACGATTCATCTGAATTATACTACACTTTTTGTCGATTGTTTTTTTACTCTTTTGTTTGAACCTTTGCTATCCCCAAAGGAGCAATGAACGACTGCTCTCAAAACGATATTTTTTTAG (double strand) [FAM-dnaA (PGN_0001) promoter]”, in data set [1], the binding entry was “binds”.
For the molecule “GGTGTTGATAACTCGGTCGCGCCTTGGTCGGCTTTCGTATAAGTGTCTGGAATGCAGTGGAATAGCGTTGTTTCCTTCGCTGTTTATATCTCAAGGTTATAACCATCTGAAAACAATATAGATACGATTCATCTGAATTATACTACACTTTTTGTCGATTGTTTTTTTACTCTTTTGTTTGAACCTTTGCTATCCCCAAAGGAGCAATGAACGACTGCTCTCAAAACGATATTTTTTTAG (double strand) [dnaA (PGN_0001) promoter 240 bp]”, the binding entry in data set [1] and in data set [2] was “binds” in each case.

B1: Zn(II)Har150, recombinant P. gingivalis Har truncated by 16 amino acids at the C-terminus (domain or fragment)
chain: MIVTSLEDLRSRLRAYVSENGLRHTPERYSILEVAYNLKKIFTPDDLFDLTRENGLPVSLSTVYNTLTLLERCGIVLRLPSPETKYQYLMASFAEQCPLLFCTECAQFSTYYRRNVKSILADKDLRPPRFSYRQALICLYGICDKCRKKQ
notes: source: E. coli BL21(DE3), purified (GSTrap, on-column Factor Xa cleavage, cation exchange, size exclusion); not shown: GST, N-terminal, cleaved
Take B1: the “stoichiometry N” value in data set [3] turned out to be 2.

B2: Zn(II)Har, recombinant Porphyromonas gingivalis Har (heme associated regulator, Fur orthologue PGN_1503) (natural protein, Porphyromonas gingivalis ATCC 33277, UniProt B2RKX7 1-166, looked up)
chain: MIVTSLEDLRSRLRAYVSENGLRHTPERYSILEVAYNLKKIFTPDDLFDLTRENGLPVSLSTVYNTLTLLERCGIVLRLPSPETKYQYLMASFAEQCPLLFCTECAQFSTYYRRNVKSILADKDLRPPRFSYRQALICLYGICDKCRKKQSALKKAADKAAPKKKK
notes: Har (Fur family transcriptional regulator), P. gingivalis ATCC 33277, gene PGN_1503 (501 bp), full length; Factor Xa site (IEGR) immediately before the start of har; Measured mass of apo-Har 19157.46 Da fits the theoretical 19157.20 Da; also called PgHar; rHar; source: E. coli BL21(DE3), purified (GSTrap, on-column Factor Xa cleavage, cation exchange, size exclusion); not shown: GST, N-terminal, …
As to B2, the “stoichiometry N” value in data set [3] turned out to be 2.

B3: Zn(II)C97A, recombinant P. gingivalis Har with Cys97 substituted with Ala (natural protein)
chain: MIVTSLEDLRSRLRAYVSENGLRHTPERYSILEVAYNLKKIFTPDDLFDLTRENGLPVSLSTVYNTLTLLERCGIVLRLPSPETKYQYLMASFAEQAPLLFCTECAQFSTYYRRNVKSILADKDLRPPRFSYRQALICLYGICDKCRKKQSALKKAADKAAPKKKK
notes: also called HarC97A; source: E. coli BL21(DE3), purified (GSTrap, on-column Factor Xa cleavage, cation exchange, size exclusion); not shown: GST, N-terminal, cleaved
Turning to B3, the “stoichiometry N” value in data set [3] is 2.
